Columns and labels:
Test in all cases: ELISA; binding of recombinant InvL to α5β1 integrin, collagen V, fibrinogen, mucin or BSA (negative control); two biological replicates; protocol based on ref. 50, details in the supplemental material
[1] = target: fibrinogen
[2] = target: collagen V
[3] = target: α5β1 integrin (UniProt P08648)
Sequence of UniProt P08648 (P08648 42-1049, chain 1 of 2): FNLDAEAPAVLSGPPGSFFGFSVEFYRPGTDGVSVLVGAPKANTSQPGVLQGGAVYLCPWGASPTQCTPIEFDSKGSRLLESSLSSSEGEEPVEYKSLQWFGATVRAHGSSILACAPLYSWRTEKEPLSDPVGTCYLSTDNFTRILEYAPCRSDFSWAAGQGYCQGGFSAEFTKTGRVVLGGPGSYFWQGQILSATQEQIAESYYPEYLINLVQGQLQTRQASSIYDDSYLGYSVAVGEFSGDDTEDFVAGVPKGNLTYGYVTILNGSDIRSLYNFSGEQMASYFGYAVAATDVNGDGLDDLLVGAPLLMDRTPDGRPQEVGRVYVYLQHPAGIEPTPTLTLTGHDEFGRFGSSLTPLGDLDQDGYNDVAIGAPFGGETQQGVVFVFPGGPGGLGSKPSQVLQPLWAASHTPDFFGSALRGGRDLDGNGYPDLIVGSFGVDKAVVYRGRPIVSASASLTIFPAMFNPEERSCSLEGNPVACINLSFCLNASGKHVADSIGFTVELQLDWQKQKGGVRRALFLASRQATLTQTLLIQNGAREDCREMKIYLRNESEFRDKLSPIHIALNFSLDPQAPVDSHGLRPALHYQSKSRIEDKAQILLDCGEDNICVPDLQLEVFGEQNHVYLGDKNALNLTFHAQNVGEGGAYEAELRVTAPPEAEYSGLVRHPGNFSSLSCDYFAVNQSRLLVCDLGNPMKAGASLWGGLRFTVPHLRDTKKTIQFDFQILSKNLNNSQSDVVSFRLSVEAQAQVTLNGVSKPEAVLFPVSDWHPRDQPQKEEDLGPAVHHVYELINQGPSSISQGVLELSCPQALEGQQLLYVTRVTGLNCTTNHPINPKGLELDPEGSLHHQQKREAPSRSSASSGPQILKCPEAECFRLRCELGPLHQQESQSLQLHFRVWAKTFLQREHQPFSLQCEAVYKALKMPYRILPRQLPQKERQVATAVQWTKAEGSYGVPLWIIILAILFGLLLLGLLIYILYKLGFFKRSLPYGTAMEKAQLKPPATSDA
Sequence of UniProt P08648 (P05556 21-798, chain 2 of 2, further chain): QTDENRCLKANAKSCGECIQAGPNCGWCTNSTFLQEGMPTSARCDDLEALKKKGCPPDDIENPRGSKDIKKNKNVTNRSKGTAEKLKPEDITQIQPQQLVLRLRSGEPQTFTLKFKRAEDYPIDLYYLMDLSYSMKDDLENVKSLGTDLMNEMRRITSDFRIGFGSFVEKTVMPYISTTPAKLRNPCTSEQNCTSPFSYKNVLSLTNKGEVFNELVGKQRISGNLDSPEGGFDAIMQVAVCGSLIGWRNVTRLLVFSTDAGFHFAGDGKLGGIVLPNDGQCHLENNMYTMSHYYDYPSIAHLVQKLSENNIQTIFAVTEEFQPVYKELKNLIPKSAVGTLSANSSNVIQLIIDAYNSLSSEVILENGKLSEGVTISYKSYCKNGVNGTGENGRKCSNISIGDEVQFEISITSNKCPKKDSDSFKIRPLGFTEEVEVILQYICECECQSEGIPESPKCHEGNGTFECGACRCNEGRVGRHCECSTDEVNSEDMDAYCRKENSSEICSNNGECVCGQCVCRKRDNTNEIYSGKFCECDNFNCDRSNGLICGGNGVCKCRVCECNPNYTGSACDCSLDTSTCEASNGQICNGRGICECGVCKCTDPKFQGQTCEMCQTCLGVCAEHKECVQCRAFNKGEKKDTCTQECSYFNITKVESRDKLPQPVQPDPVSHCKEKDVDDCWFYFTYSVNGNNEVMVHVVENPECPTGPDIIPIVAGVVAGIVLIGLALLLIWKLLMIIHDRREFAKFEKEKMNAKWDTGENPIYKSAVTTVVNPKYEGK

## soluble recombinant InvL lacking the N-terminal signal sequence, with a C-terminal His10 tag (natural protein)
[1]
  Kd: 0.19 nM
[2]
  Kd: 15000 nM
[3]
  Kd: 0.38 nM
